In FireProtDB (doi:10.1021/bi00250a042):

Conditions: Hordeum vulgare; pH 6.3; 25 °C; GdnHCl; Fluorescence; MES 450 mM; reversible: yes; whole UniProt chain shown

B1: Subtilisin-chymotrypsin inhibitor-2A wild type, P01053 (protein)
chain: MSSVEKKPEGVNTGAGDRHNLKTEWPELVGKSVEEAKKVILQDKPEAQIIVLPVGTIVTMEYRIDRVRLFVDKLDNIAQVPRVG
denaturant m value: 1.89 kcal/mol/M | denaturant midpoint (higher = more stable): 3.99 M | unfolding free energy: 7.53 kcal/mol
